Substitutions are numbered along the chain they refer to.

The source of these data is paper doi:10.1101/2020.09.30.320564.

The target in one series is T1, RRM domain (human, UniProt Q9BRS8 183-298).
T1 sequence: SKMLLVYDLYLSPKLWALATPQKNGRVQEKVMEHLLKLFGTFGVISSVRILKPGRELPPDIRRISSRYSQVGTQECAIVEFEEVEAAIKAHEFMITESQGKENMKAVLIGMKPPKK
Put plainly: EMSA. On the technique in general: Mobility shift assays separate free from complexed probe on a gel.

For the next series, the target named is T2, La-module R121A (human, UniProt Q9BRS8 81-298, R121A).
T2 sequence: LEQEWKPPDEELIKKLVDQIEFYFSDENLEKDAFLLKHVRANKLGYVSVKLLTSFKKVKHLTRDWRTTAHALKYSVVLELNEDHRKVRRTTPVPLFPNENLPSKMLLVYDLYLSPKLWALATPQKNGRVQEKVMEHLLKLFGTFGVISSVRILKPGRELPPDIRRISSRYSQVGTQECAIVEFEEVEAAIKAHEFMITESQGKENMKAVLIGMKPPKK
Put plainly: EMSA.

For another series, the target named is T3, La-module N122A (human, UniProt Q9BRS8 81-298, N122A).
T3 sequence: T2 sequence with A41R, N42A
In words: EMSA.

A further series concerns the target T4, La-module K123A (human, UniProt Q9BRS8 81-298, K123A).
T4 sequence: T2 sequence with A41R, K43A
Put plainly: EMSA.

Series [1] addresses T5, La-module (La+RRM) (human, UniProt Q9BRS8 81-298).
T5 sequence: T2 sequence with A41R
Put plainly: fluorescence polarization.

Series [2] deals with T5, La-module (La+RRM). In words: EMSA.
The next series deals with La-domain (human, UniProt Q9BRS8 81-182). Put plainly: EMSA.

Consider CACAAGGAGUCUGCAUGUCUAAGUGCUAGACAUGCUCAGCUUUGUG (structured_RNA) [α2(I) 5'SL], for which the binding result with RRM domain was “no binding”; with La-module R121A it was “binds”; in the series with La-module N122A, “binds”; in the series with La-module K123A it was “binds”; in the series with La-module (La+RRM) [1] it was “binds”.
In the case of CCACAAAGAGUCUACAUGUCUAGGGUCUAGACAUGUUCAGCUUUGUGG (structured_RNA) [α1(I) 5'SL], the binding result with La-module (La+RRM) [2] and with La-domain was “binds” throughout.
